Assays:
ETS1Δ335 = molecular target: T1, ETS1Δ335 (UniProt P14921 335-441); assay: EMSA
T1 sequence: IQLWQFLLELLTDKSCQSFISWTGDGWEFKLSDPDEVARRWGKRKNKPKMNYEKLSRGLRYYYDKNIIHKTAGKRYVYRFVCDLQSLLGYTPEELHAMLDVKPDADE

ETS1Δ335 R394A/Y395A = molecular target: T2, ETS1Δ335 R394A/Y395A (UniProt P14921 335-441, R394A;Y395A); assay: EMSA
T2 sequence: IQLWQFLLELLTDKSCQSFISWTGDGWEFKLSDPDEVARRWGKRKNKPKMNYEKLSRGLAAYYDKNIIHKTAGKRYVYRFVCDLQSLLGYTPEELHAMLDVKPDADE

ETS1Δ335 L337A = molecular target: T3, ETS1Δ335 L337A (UniProt P14921 335-441, L337A); assay: EMSA
T3 sequence: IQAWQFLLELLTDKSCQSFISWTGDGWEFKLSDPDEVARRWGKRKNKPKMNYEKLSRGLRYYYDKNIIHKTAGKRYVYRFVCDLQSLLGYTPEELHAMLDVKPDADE

cross-linking = molecular target: the molecule itself; assay: cross-linking

B1: MMP3 M1 (dsDNA)
DNA 1: ACAAAAAGCACTTCCTGG
DNA 2: CCAGGAAGTGCTTTTTGT
Work on B1 yielded a Kd (ETS1Δ335) of 13.5 ± 1.9 nM and a Kd (ETS1Δ335 R394A/Y395A) of 105 ± 5.2 nM.

B2: MMP3 WT (dsDNA)
DNA 1: ACAGGAAGCACTTCCTGG
DNA 2: CCAGGAAGTGCTTCCTGT
With B2 the Kd (ETS1Δ335) was 1.2 ± 0.2 nM, the binding result (ETS1Δ335 L337A) was “no binding” and the Kd (ETS1Δ335 R394A/Y395A) was 16.1 ± 1.3 nM.

B3: p53 (dsDNA)
DNA 1: TTAGGAAGGCTTTCCGTA
DNA 2: TACGGAAAGCCTTCCTAA
B3: no binding (ETS1Δ335); no binding (ETS1Δ335 R394A/Y395A).

B4: MMP3 M2 (dsDNA)
DNA 1: ACAGGAAGCACTTTTTGG
DNA 2: CCAAAAAGTGCTTCCTGT
With B4 the Kd (ETS1Δ335) was 6.37 ± 0.92 nM and the Kd (ETS1Δ335 R394A/Y395A) was 7.33 ± 0.55 nM.

B5: ETS1Δ335 R378C (domain or fragment, UniProt P14921 335-441, looked up)
chain: IQLWQFLLELLTDKSCQSFISWTGDGWEFKLSDPDEVARRWGKCKNKPKMNYEKLSRGLRYYYDKNIIHKTAGKRYVYRFVCDLQSLLGYTPEELHAMLDVKPDADE
With B5 the “stoichiometry N” value (cross-linking) was 2.

B6: ETS1Δ335 L337A R378C (domain or fragment, UniProt P14921 335-441, looked up)
chain: IQAWQFLLELLTDKSCQSFISWTGDGWEFKLSDPDEVARRWGKCKNKPKMNYEKLSRGLRYYYDKNIIHKTAGKRYVYRFVCDLQSLLGYTPEELHAMLDVKPDADE
In the case of B6, the “stoichiometry N” value (cross-linking) is reported as 2.

B7: ETS1Δ335 R378C/R394A/Y395A (domain or fragment, UniProt P14921 335-441, looked up)
chain: IQLWQFLLELLTDKSCQSFISWTGDGWEFKLSDPDEVARRWGKCKNKPKMNYEKLSRGLAAYYDKNIIHKTAGKRYVYRFVCDLQSLLGYTPEELHAMLDVKPDADE
B7 was tested, and the “stoichiometry N” value (cross-linking) was 2.

— paper doi:10.1101/070185 (bioRxiv, 2016)
